# Data as given in patent CN115043938A (DUAN LIANGWEI; JIANG ZHIHUA; WANG HUI, dated 2022).
# B1: 抗体Amb1 (antibody, V domains shown)
# VH: EVQLLESGTEVKKPGSSVKVSCKASGGTFSSYAISWVRQAPGQGLEWMGGIIPILGIANYAQKFQGRVTITADKSTSTAYMELSSLRSEDTAVYYCARERGYSGYGAAYYFDYWGQGTLVTVSS
# VL: QSVLTQAPSVSGAPGQSVTISCTGSSSNIGAGYDVHWYQQLPGTAPKLLIYGNNNRPSGVPDRFSGSKSGTSASLAITGLQAEDEADYYCQSYDSSLSKGVFGGGTKLTVL
# B2: 抗体Amb2 (antibody, V domains shown)
# VH: EVQLLESGPGLVKPSETLSLTCTVSGGSISNSSYYWGWIRQPPGKGLEWIGSIYYSGSTYYNPSLKSRVTISVDTSKNQFSLKLSSVTAADTGVYYCASWLYGDPISFDYWGQGTLVTVSS
# VL: not shown
# How the values were obtained:
# [1] = biological target: SARS-CoV-2野生型 S蛋白 (假病毒) (SARS-CoV-2 野生型, UniProt P0DTC2 14-1273); assay: cell-based or functional assay
# [2] = biological target: 新型冠状病毒野生型RBD蛋白 (RBD-WT, cat#Z03479, Gensript) (SARS-CoV-2 野生型, UniProt P0DTC2 319-541); assay: BIAcore SPR, RBD immobilised on CM5 chip, antibody as analyte, 25℃, 1:1 model
Binder,假病毒中和 IC50 [1],Kd [2]
B1,0.13 µg/mL,151 nM
B2,0.064 µg/mL,164 nM
